Data taken from article PMC3099244.

Biological target: TAP-tagged wild-type Dyn1-GFP (cytoplasmic dynein heavy chain) (S. cerevisiae) (UniProt P36022)
Assay: single-molecule stepwise photobleaching

TAP-tagged wild-type Dyn1-GFP (cytoplasmic dynein heavy chain), P36022 1-4092
stoichiometry N: 2
